The sequences below were run against Hck (UniProt P08631) (assay: phosphorylation enrichment, bacterial display (enrichment ratio); higher = better substrate or ligand; peptides without Tyr show the background).
Hck, sequence (P08631 whole entry, looked up): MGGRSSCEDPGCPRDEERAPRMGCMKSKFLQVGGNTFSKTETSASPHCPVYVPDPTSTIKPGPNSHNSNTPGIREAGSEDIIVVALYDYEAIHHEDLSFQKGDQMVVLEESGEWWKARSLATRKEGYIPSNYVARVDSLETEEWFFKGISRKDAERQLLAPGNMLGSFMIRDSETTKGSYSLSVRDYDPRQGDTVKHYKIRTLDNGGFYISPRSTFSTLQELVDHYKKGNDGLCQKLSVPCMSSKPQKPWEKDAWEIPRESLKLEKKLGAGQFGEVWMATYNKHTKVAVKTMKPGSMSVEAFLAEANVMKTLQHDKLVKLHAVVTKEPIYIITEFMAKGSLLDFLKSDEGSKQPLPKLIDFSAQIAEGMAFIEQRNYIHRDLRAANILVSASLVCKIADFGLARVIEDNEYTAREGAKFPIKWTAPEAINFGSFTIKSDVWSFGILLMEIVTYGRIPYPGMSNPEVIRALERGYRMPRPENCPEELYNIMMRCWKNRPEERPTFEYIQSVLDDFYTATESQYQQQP
Sequence KLQQWYREPRS [GPI_Y17_H20P] has a phosphorylation enrichment of 0.493.
EESREYDRLFE [PIK3R1_Y463_K459E_YF] was tested, and the phosphorylation enrichment was 0.657.
LQEQNYPAVDS [FAM114A1_Y115_L116P] gave a phosphorylation enrichment of 0.739.
PDKRIYQFTAS [SKAP2_Y197_A202S] was tested, and the phosphorylation enrichment was 0.698.
Work on VTRAKYFIRDE [GNAS_Y339] yielded a phosphorylation enrichment of 0.409.
With CLAQRYLIWEC [SCN5A_Y694_R689C] the phosphorylation enrichment was 0.535.
Work on HVLEEYKPKQG [SAXO2_Y37_P34L] yielded a phosphorylation enrichment of 0.646.
For NRSSLYLVAGP [KIAA1614_Y1083], the phosphorylation enrichment was 0.619.
In the case of PQAVTYAEVKH [LILRB4_Y360_K362E], the phosphorylation enrichment is reported as 4.17.
In the case of CTTIPYNYMCN [TP53_Y234_H233P], the phosphorylation enrichment is reported as 0.433.
YGSSSYRGAGG [RPA2_Y14_G15R] showed a phosphorylation enrichment of 0.443.
SVSVNYGDQVQ [GRAP_Y101] gave a phosphorylation enrichment of 0.416.
MSNVPYVMNRG [ACAT1_Y161] showed a phosphorylation enrichment of 0.399.
Sequence MARDIYQASFF [LTK_Y672_R673Q_YF] has a phosphorylation enrichment of 7.31.
AIYEGYALPHA [ACTC1_Y171_P166A] gave a phosphorylation enrichment of 13.7.
For QPDFLYDHIQP [TRRAP_Y862], the phosphorylation enrichment was 9.82.
LGSVVYAHSKE [KCNQ2_Y226] was tested, and the phosphorylation enrichment was 0.403.
NAGDFYDLFGG [PTPN11_Y63_T59A_YF] gave a phosphorylation enrichment of 3.55.
For ECKETYHEGEC [PRKN_Y372_A371T], the phosphorylation enrichment was 0.694.
FPRAWCRRSIA [KIAA1109_Y4272_Y4272C] gave a phosphorylation enrichment of 0.466.
PLDGGYFTLQI [TP53_Y327_E326G] showed a phosphorylation enrichment of 0.679.
Sequence QCTSAYPLQPE [NANS_Y188] has a phosphorylation enrichment of 0.623.
CQLENYCNGGG [INS_Y108_Y103C] was tested, and the phosphorylation enrichment was 0.57.
Work on QSSEGYGLGDR [KIAA1210_Y564] yielded a phosphorylation enrichment of 0.989.
Sequence FGAHNYHPLPV [OAT_Y55_YF] has a phosphorylation enrichment of 0.606.
With ALAHKYDGGGG [HBB_Y146_H147D] the phosphorylation enrichment was 0.473.
With YSGDYYRIQGR [DDR2_Y741] the phosphorylation enrichment was 1.68.
Work on FGEFRYRSVIK [CFTR_Y517_D513G_YF] yielded a phosphorylation enrichment of 0.565.
In the case of EKRDAYVSRLN [GSR_Y150], the phosphorylation enrichment is reported as 0.429.

The sequences below were run against Jak2 (UniProt O60674) in the same assay as above.
Jak2, sequence (O60674 whole entry, looked up): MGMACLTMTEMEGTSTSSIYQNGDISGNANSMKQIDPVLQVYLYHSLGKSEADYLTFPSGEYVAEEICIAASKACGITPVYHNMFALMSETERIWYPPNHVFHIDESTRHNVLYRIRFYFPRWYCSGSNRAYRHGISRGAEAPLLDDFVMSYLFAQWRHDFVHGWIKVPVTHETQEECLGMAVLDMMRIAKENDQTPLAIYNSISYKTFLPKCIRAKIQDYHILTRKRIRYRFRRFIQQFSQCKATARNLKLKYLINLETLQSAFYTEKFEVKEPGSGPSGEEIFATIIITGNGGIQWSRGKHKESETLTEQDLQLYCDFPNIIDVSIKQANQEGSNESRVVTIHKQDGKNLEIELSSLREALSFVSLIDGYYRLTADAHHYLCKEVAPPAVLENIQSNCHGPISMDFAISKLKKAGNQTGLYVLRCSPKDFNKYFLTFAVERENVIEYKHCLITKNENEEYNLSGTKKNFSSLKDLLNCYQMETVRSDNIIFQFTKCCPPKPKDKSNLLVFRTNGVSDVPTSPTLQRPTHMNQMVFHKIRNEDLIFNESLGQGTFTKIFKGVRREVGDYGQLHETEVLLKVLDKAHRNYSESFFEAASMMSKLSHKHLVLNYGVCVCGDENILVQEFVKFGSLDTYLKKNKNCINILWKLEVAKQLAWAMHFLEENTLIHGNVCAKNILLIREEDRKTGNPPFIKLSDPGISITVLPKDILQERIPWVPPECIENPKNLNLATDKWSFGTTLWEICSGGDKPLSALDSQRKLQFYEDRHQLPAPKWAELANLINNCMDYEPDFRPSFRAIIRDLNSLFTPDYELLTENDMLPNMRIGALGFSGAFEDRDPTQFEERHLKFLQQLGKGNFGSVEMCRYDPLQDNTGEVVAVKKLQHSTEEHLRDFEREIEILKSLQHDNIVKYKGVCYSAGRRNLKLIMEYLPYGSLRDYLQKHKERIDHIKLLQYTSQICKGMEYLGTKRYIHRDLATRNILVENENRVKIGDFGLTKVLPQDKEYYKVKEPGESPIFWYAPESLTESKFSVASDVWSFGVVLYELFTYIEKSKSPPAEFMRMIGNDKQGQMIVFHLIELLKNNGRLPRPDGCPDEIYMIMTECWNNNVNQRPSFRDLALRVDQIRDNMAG
For KLQQWYREPRS [GPI_Y17_H20P], the phosphorylation enrichment was 0.562.
With EESREYDRLFE [PIK3R1_Y463_K459E_YF] the phosphorylation enrichment was 1.48.
In the case of LQEQNYPAVDS [FAM114A1_Y115_L116P], the phosphorylation enrichment is reported as 1.54.
Work on PDKRIYQFTAS [SKAP2_Y197_A202S] yielded a phosphorylation enrichment of 0.637.
VTRAKYFIRDE [GNAS_Y339] gave a phosphorylation enrichment of 0.622.
CLAQRYLIWEC [SCN5A_Y694_R689C] showed a phosphorylation enrichment of 1.03.
Work on HVLEEYKPKQG [SAXO2_Y37_P34L] yielded a phosphorylation enrichment of 1.36.
In the case of NRSSLYLVAGP [KIAA1614_Y1083], the phosphorylation enrichment is reported as 0.698.
PQAVTYAEVKH [LILRB4_Y360_K362E] was tested, and the phosphorylation enrichment was 0.867.
For CTTIPYNYMCN [TP53_Y234_H233P], the phosphorylation enrichment was 0.791.
YGSSSYRGAGG [RPA2_Y14_G15R] was tested, and the phosphorylation enrichment was 0.528.
SVSVNYGDQVQ [GRAP_Y101] was tested, and the phosphorylation enrichment was 0.794.
MSNVPYVMNRG [ACAT1_Y161] was tested, and the phosphorylation enrichment was 0.572.
With MARDIYQASFF [LTK_Y672_R673Q_YF] the phosphorylation enrichment was 0.992.
In the case of AIYEGYALPHA [ACTC1_Y171_P166A], the phosphorylation enrichment is reported as 0.789.
For QPDFLYDHIQP [TRRAP_Y862], the phosphorylation enrichment was 1.21.
In the case of LGSVVYAHSKE [KCNQ2_Y226], the phosphorylation enrichment is reported as 0.559.
In the case of NAGDFYDLFGG [PTPN11_Y63_T59A_YF], the phosphorylation enrichment is reported as 0.971.
In the case of ECKETYHEGEC [PRKN_Y372_A371T], the phosphorylation enrichment is reported as 1.62.
FPRAWCRRSIA [KIAA1109_Y4272_Y4272C] was tested, and the phosphorylation enrichment was 0.588.
With PLDGGYFTLQI [TP53_Y327_E326G] the phosphorylation enrichment was 5.04.
In the case of QCTSAYPLQPE [NANS_Y188], the phosphorylation enrichment is reported as 1.65.
In the case of CQLENYCNGGG [INS_Y108_Y103C], the phosphorylation enrichment is reported as 0.837.
Sequence QSSEGYGLGDR [KIAA1210_Y564] has a phosphorylation enrichment of 1.14.
Work on FGAHNYHPLPV [OAT_Y55_YF] yielded a phosphorylation enrichment of 0.58.
Sequence ALAHKYDGGGG [HBB_Y146_H147D] has a phosphorylation enrichment of 0.825.
Work on YSGDYYRIQGR [DDR2_Y741] yielded a phosphorylation enrichment of 8.46.
FGEFRYRSVIK [CFTR_Y517_D513G_YF] was tested, and the phosphorylation enrichment was 0.744.
In the case of EKRDAYVSRLN [GSR_Y150], the phosphorylation enrichment is reported as 0.48.

The sequences below were run against MERTK (UniProt Q12866) in the same assay as above.
MERTK, sequence (Q12866 whole entry, looked up): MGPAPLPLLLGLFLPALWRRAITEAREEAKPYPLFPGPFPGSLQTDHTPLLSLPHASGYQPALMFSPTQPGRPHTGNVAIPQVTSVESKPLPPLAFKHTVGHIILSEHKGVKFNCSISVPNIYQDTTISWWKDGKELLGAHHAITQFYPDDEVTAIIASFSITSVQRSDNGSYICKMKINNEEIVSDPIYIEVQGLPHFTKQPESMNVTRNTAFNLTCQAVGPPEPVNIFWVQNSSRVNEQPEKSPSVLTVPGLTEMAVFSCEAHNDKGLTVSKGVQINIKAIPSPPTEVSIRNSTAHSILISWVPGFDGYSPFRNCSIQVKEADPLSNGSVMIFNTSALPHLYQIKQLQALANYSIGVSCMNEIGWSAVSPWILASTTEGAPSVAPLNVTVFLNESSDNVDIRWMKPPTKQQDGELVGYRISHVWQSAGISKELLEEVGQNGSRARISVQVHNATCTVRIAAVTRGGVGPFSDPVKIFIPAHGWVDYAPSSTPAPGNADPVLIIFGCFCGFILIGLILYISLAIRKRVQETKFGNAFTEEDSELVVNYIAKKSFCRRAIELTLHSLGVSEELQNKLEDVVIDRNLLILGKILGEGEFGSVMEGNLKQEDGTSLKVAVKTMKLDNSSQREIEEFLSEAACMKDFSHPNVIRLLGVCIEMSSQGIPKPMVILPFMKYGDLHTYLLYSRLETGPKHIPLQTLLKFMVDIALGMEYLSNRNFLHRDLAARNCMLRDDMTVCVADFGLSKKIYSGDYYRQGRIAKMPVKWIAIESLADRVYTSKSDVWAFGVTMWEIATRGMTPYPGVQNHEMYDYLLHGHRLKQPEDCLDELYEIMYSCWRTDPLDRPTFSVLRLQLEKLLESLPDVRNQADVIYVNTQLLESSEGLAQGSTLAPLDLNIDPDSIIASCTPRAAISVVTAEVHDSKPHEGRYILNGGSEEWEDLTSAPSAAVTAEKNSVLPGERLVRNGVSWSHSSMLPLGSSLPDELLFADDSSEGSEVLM
For KLQQWYREPRS [GPI_Y17_H20P], the phosphorylation enrichment was 0.463.
Work on EESREYDRLFE [PIK3R1_Y463_K459E_YF] yielded a phosphorylation enrichment of 0.546.
Sequence LQEQNYPAVDS [FAM114A1_Y115_L116P] has a phosphorylation enrichment of 0.81.
For PDKRIYQFTAS [SKAP2_Y197_A202S], the phosphorylation enrichment was 0.846.
Sequence VTRAKYFIRDE [GNAS_Y339] has a phosphorylation enrichment of 0.405.
In the case of CLAQRYLIWEC [SCN5A_Y694_R689C], the phosphorylation enrichment is reported as 0.48.
HVLEEYKPKQG [SAXO2_Y37_P34L] gave a phosphorylation enrichment of 0.57.
Sequence NRSSLYLVAGP [KIAA1614_Y1083] has a phosphorylation enrichment of 1.09.
With PQAVTYAEVKH [LILRB4_Y360_K362E] the phosphorylation enrichment was 0.617.
For CTTIPYNYMCN [TP53_Y234_H233P], the phosphorylation enrichment was 0.418.
With YGSSSYRGAGG [RPA2_Y14_G15R] the phosphorylation enrichment was 0.369.
SVSVNYGDQVQ [GRAP_Y101] was tested, and the phosphorylation enrichment was 0.545.
Work on MSNVPYVMNRG [ACAT1_Y161] yielded a phosphorylation enrichment of 0.474.
Sequence MARDIYQASFF [LTK_Y672_R673Q_YF] has a phosphorylation enrichment of 5.44.
With AIYEGYALPHA [ACTC1_Y171_P166A] the phosphorylation enrichment was 13.8.
With QPDFLYDHIQP [TRRAP_Y862] the phosphorylation enrichment was 7.66.
LGSVVYAHSKE [KCNQ2_Y226] was tested, and the phosphorylation enrichment was 0.424.
For NAGDFYDLFGG [PTPN11_Y63_T59A_YF], the phosphorylation enrichment was 2.72.
ECKETYHEGEC [PRKN_Y372_A371T] gave a phosphorylation enrichment of 0.629.
FPRAWCRRSIA [KIAA1109_Y4272_Y4272C] was tested, and the phosphorylation enrichment was 0.562.
In the case of PLDGGYFTLQI [TP53_Y327_E326G], the phosphorylation enrichment is reported as 0.5.
In the case of QCTSAYPLQPE [NANS_Y188], the phosphorylation enrichment is reported as 0.682.
Sequence CQLENYCNGGG [INS_Y108_Y103C] has a phosphorylation enrichment of 0.503.
Work on QSSEGYGLGDR [KIAA1210_Y564] yielded a phosphorylation enrichment of 0.847.
In the case of FGAHNYHPLPV [OAT_Y55_YF], the phosphorylation enrichment is reported as 1.04.
Sequence ALAHKYDGGGG [HBB_Y146_H147D] has a phosphorylation enrichment of 0.54.
With YSGDYYRIQGR [DDR2_Y741] the phosphorylation enrichment was 5.04.
With FGEFRYRSVIK [CFTR_Y517_D513G_YF] the phosphorylation enrichment was 0.409.
Sequence EKRDAYVSRLN [GSR_Y150] has a phosphorylation enrichment of 0.397.

These sequences were tested on c-Abl (mouse) in the same assay as above.
For KLQQWYREPRS [GPI_Y17_H20P], the phosphorylation enrichment was 0.615.
EESREYDRLFE [PIK3R1_Y463_K459E_YF] showed a phosphorylation enrichment of 1.07.
Work on LQEQNYPAVDS [FAM114A1_Y115_L116P] yielded a phosphorylation enrichment of 1.13.
Sequence PDKRIYQFTAS [SKAP2_Y197_A202S] has a phosphorylation enrichment of 0.551.
Work on VTRAKYFIRDE [GNAS_Y339] yielded a phosphorylation enrichment of 0.458.
For CLAQRYLIWEC [SCN5A_Y694_R689C], the phosphorylation enrichment was 0.788.
Sequence HVLEEYKPKQG [SAXO2_Y37_P34L] has a phosphorylation enrichment of 0.698.
Work on NRSSLYLVAGP [KIAA1614_Y1083] yielded a phosphorylation enrichment of 0.642.
In the case of PQAVTYAEVKH [LILRB4_Y360_K362E], the phosphorylation enrichment is reported as 0.763.
CTTIPYNYMCN [TP53_Y234_H233P] was tested, and the phosphorylation enrichment was 0.615.
Work on YGSSSYRGAGG [RPA2_Y14_G15R] yielded a phosphorylation enrichment of 0.623.
SVSVNYGDQVQ [GRAP_Y101] was tested, and the phosphorylation enrichment was 0.804.
MSNVPYVMNRG [ACAT1_Y161] gave a phosphorylation enrichment of 0.527.
MARDIYQASFF [LTK_Y672_R673Q_YF] gave a phosphorylation enrichment of 5.43.
AIYEGYALPHA [ACTC1_Y171_P166A] showed a phosphorylation enrichment of 18.1.
In the case of QPDFLYDHIQP [TRRAP_Y862], the phosphorylation enrichment is reported as 0.928.
With LGSVVYAHSKE [KCNQ2_Y226] the phosphorylation enrichment was 0.449.
Sequence NAGDFYDLFGG [PTPN11_Y63_T59A_YF] has a phosphorylation enrichment of 0.762.
Work on ECKETYHEGEC [PRKN_Y372_A371T] yielded a phosphorylation enrichment of 1.03.
Work on FPRAWCRRSIA [KIAA1109_Y4272_Y4272C] yielded a phosphorylation enrichment of 0.641.
With PLDGGYFTLQI [TP53_Y327_E326G] the phosphorylation enrichment was 1.09.
Work on QCTSAYPLQPE [NANS_Y188] yielded a phosphorylation enrichment of 2.7.
CQLENYCNGGG [INS_Y108_Y103C] gave a phosphorylation enrichment of 0.621.
QSSEGYGLGDR [KIAA1210_Y564] showed a phosphorylation enrichment of 1.27.
For FGAHNYHPLPV [OAT_Y55_YF], the phosphorylation enrichment was 0.562.
With ALAHKYDGGGG [HBB_Y146_H147D] the phosphorylation enrichment was 0.663.
YSGDYYRIQGR [DDR2_Y741] showed a phosphorylation enrichment of 1.76.
With FGEFRYRSVIK [CFTR_Y517_D513G_YF] the phosphorylation enrichment was 0.574.
EKRDAYVSRLN [GSR_Y150] was tested, and the phosphorylation enrichment was 0.423.

Reference: the supplement of paper PMC10065799, “High-throughput profiling of sequence recognition by tyrosine kinases and SH2 domains using bacterial peptide display” (eLife, 2023)
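Further: 11-residue human phosphosite peptides and single-mutation variants displayed on the E. coli surface, counted by deep sequencing, each peptide's frequency after selection divided by its frequency in the unselected input library; frequency after pTyr selection over input frequency; kinase dosed for 20-30% of maximal phosphorylation in three min.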
